From PMC6194124, “Mannosidase activity of EDEM1 and EDEM2 depends on an unfolded state of their glycoprotein substrates” (Communications Biology, 2018)

Biological target: T1, EDEM1-HA (UniProt Q925U4 1-652)
T1 construct: source: HEK 293, transiently transfected (pCMVsport2), in lysate
T1 sequence (looked up): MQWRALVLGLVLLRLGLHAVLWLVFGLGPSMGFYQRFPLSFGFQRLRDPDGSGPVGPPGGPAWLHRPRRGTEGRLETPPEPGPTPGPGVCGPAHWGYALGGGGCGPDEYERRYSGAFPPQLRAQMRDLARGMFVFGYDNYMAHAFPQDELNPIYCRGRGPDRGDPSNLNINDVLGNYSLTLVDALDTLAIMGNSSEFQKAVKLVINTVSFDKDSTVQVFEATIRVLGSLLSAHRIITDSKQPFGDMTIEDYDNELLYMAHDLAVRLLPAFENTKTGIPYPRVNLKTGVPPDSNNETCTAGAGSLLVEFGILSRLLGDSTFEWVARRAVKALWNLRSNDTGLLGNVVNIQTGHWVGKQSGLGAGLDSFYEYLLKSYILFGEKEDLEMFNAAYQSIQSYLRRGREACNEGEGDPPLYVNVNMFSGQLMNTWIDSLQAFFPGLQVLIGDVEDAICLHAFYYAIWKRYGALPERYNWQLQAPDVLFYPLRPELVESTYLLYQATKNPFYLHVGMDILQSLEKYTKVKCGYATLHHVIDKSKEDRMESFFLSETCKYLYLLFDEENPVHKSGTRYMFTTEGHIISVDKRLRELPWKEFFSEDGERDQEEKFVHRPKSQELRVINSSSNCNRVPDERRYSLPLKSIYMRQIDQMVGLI
Experiment: co-IP; HEK 293 cells expressing EDEM1-HA or EDEM2-HA with FLAG-TXNDC11 or FLAG-PDI; lysed in mild conditions (1% NP-40, 50 mM Tris/HCl pH 8, 150 mM NaCl); immunoprecipitated with anti-EDEM1 or anti-EDEM2, immunoblotted with anti-FLAG
Details: partners not purified

fold weaker coIP than with TXNDC11: ~15 fold
B1: FLAG-PDI (enzyme)
chain: not shown
notes: mammalian protein disulfide isomerase (PDI); vector a gift from E. Avezov; also called protein disulfide isomerase; source: HEK 293, transiently transfected, in lysate
